# T1: GST-EIL1-N (OsEIL1 N-terminal region) (Oryza sativa (rice), UniProt Q10M41 1-350)
# T1 sequence: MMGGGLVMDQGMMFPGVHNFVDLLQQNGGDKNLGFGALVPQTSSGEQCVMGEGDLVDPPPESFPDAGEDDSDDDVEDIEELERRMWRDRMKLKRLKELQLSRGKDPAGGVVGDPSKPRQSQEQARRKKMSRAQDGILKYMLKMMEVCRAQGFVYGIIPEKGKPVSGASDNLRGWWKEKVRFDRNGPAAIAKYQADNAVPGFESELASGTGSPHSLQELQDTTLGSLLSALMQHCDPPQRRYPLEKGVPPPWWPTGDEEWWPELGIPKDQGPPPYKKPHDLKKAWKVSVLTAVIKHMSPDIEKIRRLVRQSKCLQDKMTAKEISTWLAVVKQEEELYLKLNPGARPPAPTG
# Biological target: T1, GST-EIL1-N (OsEIL1 N-terminal region)
# Experiment: EMSA; specificity shown by excess unlabeled probe competition; LightShift Chemiluminescent EMSA kit, manufacturer's protocol; 20 min at room temperature; 5% native polyacrylamide gel; buffer, salt and pH not stated
# Conditions: protein: recombinant; tags: N-terminal GST (pGEX-6p-1); label: biotin 3' end; blunt
binder,measurement,value
YUC8/REIN7 promoter EBS probe (P1 fragment region) (dsDNA) DNA 1: CCAAAATTTTTAATGTAAAATTTTAAGTACATTTTTTTCATGTACTAGCTACCTCC DNA 2: GGAGGTAGCTAGTACATGAAAAAAATGTACTTAAAATTTTACATTAAAAATTTTGG,binding result,binds

# Source: article PMC5581195, “The activation of OsEIL1 on YUC8 transcription and auxin biosynthesis is required for ethylene-inhibited root elongation in rice early seedling development”
